We go through 17 molecules from patent publication US20250282890A1 (TECHNISCHE UNIVERSIT T M NCHEN, published 2025).

The labels stand for the following.
B1: 2-5D3-IgG1 (antibody, V domains shown)
VH: QVQLVQSGAEVKKPGASVKVSCKASGYAFNTSWMNWVRQAPGQGLEYIGRIYPGDGDTNYNGKFKGKATMTADKSISTVYMEVRRLRSDDTAVYYCARGEWYLYYFDYWGQGTLVTVSS
VL: DIQMTQSPSSLSASVGDRVTITCSASQGINNFLTWYQHEPGKALKLLIYYTSSLHSGVPSRFSGSGSGTDYTLTISTLQPEDFATYYCQQYSNLPFTFGGGTKVEIK
notes: also called full-length humanized 5D3 version 2
B2: 5-5D3-IgG1 (antibody, V domains shown)
VH: B1 VH with A9P, K19R, V20L, Y47W, I76T, S77N, V79A, V83L, R85S, A97G
VL: B1 VL with L11V, T22S, H38Q, E39K, P40L, K45Q, T77S, G100P, E105D
notes: also called full-length humanized 5D3 version 5
B3: 6-5D3-IgG1 (antibody, V domains shown)
VH: EVQLVESGGGLVQPGGSLRLSCAASGYAFNTSWMNWVRQAPGKGLEWISRIYPGDGDTNYNGKFKGKATISADKSKNTLYLQMNSLRAEDTAVYYCARGEWYLYYFDYWGQGTLVTVSS
VL: B1 VL with H38Q, E39K, T77S, G100Q
modifications: N-glycosylation at VH N30
notes: also called h5D3; humanized 5D3
B4: 6-5D3-hFab (Fab, V domains shown)
VH: B3 VH
VL: B1 VL with H38Q, E39K, T77S, G100Q
notes: Humanized Fab with a TwinStrep tag at the C-terminus of the CH1 constant domain; also called version 6 of 5D3-Fab; antibody 6 (Fab format)
B5: 2-5D3-hFab (Fab, V domains shown)
VH: B1 VH
VL: B1 VL
notes: Humanized Fab with a TwinStrep tag at the C-terminus of the CH1 constant domain; also called version 2 of 5D3-Fab; antibody 2
B6: 5-5D3-hFab (Fab, V domains shown)
VH: B1 VH with A9P, K19R, V20L, Y47W, I76T, S77N, V79A, V83L, R85S, A97G
VL: B1 VL with L11V, T22S, H38Q, E39K, P40L, K45Q, T77S, G100P, E105D
notes: Humanized Fab with a TwinStrep tag at the C-terminus of the CH1 constant domain; also called version 5 of 5D3-Fab; antibody 5
B7: h5D3 variant HVg3 (antibody, human IgG1, V domains shown)
VH: B3 VH with N30Q, D55E, D57E, G62A
VL: B1 VL with H38Q, E39K, T77S, G100Q
notes: Full-length human IgG1 kappa variant of h5D3 (antibody 6)
B8: h5D3 variant LVg2HVg3 (antibody, human IgG1, V domains shown)
VH: B3 VH with N30Q, D55E, D57E, G62A
VL: B1 VL with N30E, H38Q, E39K, T77S, G100Q
notes: as for B7
B9: h5D3 variant LVg2HVg2 (antibody, human IgG1, V domains shown)
VH: B3 VH with N30Q, G56A, G62A
VL: B1 VL with N30E, H38Q, E39K, T77S, G100Q
notes: as for B7
B10: h5D3 variant LVg2 (antibody, human IgG1, V domains shown)
VH: B3 VH
VL: B1 VL with N30E, H38Q, E39K, T77S, G100Q
notes: as for B7
B11: h5D3 variant HVg2 (antibody, human IgG1, V domains shown)
VH: B3 VH with N30Q, G56A, G62A
VL: B1 VL with H38Q, E39K, T77S, G100Q
notes: as for B7
B12: h5D3 variant HVg5 (antibody, human IgG1, V domains shown)
VH: B3 VH with N30Q, D55E, D57S, G62A
VL: B1 VL with H38Q, E39K, T77S, G100Q
notes: as for B7
B13: h5D3 variant LVg2HVg5 (antibody, human IgG1, V domains shown)
VH: B3 VH with N30Q, D55E, D57S, G62A
VL: B1 VL with N30E, H38Q, E39K, T77S, G100Q
notes: as for B7
B14: h5D3 variant LVg2HVg7 (antibody, human IgG1, V domains shown)
VH: B3 VH with N30Q
VL: B1 VL with N30E, H38Q, E39K, T77S, G100Q
notes: as for B7
B15: h5D3 variant HVg4 (antibody, human IgG1, V domains shown)
VH: B3 VH with N30Q, D55E, G62A
VL: B1 VL with H38Q, E39K, T77S, G100Q
notes: as for B7
B16: h5D3 variant HVg7 (antibody, human IgG1, V domains shown)
VH: B3 VH with N30Q
VL: B1 VL with H38Q, E39K, T77S, G100Q
notes: as for B7
B17: h5D3 variant LVg2HVg4 (antibody, human IgG1, V domains shown)
VH: B3 VH with N30Q, D55E, G62A
VL: B1 VL with N30E, H38Q, E39K, T77S, G100Q
notes: as for B7

Changes are numbered by the printed parent chain.

T2 sequence (Q04609 whole entry): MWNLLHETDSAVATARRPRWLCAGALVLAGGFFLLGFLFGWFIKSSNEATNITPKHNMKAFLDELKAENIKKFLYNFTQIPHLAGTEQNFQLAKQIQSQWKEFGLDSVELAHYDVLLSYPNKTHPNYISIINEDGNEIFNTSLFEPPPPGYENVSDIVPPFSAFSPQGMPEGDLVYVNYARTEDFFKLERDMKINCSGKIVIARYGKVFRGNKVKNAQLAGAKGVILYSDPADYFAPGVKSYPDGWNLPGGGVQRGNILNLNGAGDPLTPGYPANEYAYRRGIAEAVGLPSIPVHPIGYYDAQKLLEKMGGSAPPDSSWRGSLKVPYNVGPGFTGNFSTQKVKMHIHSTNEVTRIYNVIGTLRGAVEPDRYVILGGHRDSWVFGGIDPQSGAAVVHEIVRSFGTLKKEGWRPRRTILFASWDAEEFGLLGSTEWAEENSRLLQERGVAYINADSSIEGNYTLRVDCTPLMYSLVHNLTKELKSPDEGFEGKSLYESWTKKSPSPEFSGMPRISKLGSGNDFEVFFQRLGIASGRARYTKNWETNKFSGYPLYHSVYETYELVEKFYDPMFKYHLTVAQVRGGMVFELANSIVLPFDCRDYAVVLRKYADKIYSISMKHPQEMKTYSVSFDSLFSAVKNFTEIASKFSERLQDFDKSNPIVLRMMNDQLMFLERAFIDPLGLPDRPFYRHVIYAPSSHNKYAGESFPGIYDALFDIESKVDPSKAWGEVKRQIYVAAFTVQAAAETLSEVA

One test deals with T1, recombinant human PSMA (prostate-specific membrane antigen), biotin-tagged (human, UniProt Q04609 44-750, biotin tag (site not stated)).
T1 construct: also called biotin-tagged PSMA; biotin-labelled PSMA
T1 sequence (Q04609 44-750 limits assumed): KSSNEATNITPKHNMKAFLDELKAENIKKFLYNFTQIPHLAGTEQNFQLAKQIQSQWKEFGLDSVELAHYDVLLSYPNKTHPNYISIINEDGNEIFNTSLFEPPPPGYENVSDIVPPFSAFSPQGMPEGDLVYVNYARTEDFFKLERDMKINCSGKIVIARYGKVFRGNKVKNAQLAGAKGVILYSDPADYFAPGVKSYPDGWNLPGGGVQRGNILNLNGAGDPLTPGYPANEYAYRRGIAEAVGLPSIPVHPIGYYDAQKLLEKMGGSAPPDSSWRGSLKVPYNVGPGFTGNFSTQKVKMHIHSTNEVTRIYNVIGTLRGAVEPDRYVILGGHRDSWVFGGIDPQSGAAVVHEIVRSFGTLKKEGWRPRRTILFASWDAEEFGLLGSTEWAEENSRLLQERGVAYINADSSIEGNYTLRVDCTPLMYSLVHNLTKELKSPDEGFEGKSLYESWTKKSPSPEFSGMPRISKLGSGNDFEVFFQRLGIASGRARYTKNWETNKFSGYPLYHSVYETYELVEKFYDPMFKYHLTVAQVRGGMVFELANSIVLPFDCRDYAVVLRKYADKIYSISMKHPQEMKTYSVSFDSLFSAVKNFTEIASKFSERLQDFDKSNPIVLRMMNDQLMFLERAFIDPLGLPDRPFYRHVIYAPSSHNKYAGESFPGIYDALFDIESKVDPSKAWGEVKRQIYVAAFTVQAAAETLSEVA
The experiment in a line: native ELISA, streptavidin-captured biotin-tagged PSMA, IgG1 titrated. The method, then:
(§1) Native ELISA was used to measure affinity of 5D3-hFabs for human PSMA. Experiments were performed in 96-well MaxiSorp plates coated with streptavidin complexed with biotin-tagged PSMA. Purified 5D3-hFabs were applied in 2-fold dilution series in the concentration range of 2000 nM-0.95 pM and goat anti-human secondary antibody conjugated to horseradish peroxidase, together with the TMB substrate, was used for 5D3-hFabs detection. Data were processed using a Prism 6 software (GraphPad, San Diego, CA) and binding curves fitted using an embedded non-linear curve-fitting algorithm (FIG. 4, Table 1). Affinity of all variants tested was in a single-digit nanomolar range (1.8-2.7 nM) and virtually identical to the parent murine and chimeric Fabs, documenting successful humanization results.
Native ELISA was used to measure affinity of humanized 5D3-IgG1s for human PSMA in an experimental setup described above and binding curves together with corresponding KD values shown in FIG. 10 and Table 2, respectively. Affinity of all variants tested was in a picomolar range (260-380 pM) and virtually identical to the parent murine and chimeric full-length IgG1s, documenting successful outcome of the humanization process.
A general note: In an ELISA, binding on a coated surface is turned into a signal by an enzyme label.
Broadly, the Kd is the constant that tells how readily two partners part at equilibrium. Turning to B1, the Kd worked out at 260 pM.
Same read-out and setting: to B2 belongs 390 pM; to B3, 380 pM.

The next test has as its target T1, recombinant human PSMA …. The experiment in a line: native ELISA, streptavidin-captured biotin-tagged PSMA, Fab titrated. The protocol: as §1
Consider B4, for which the Kd came out at 1800 pM.
Same read-out and setting: to B5 belongs 2700 pM.
As to B6, the Kd was found to be 1800 pM.

Another test addresses T1, recombinant human PSMA …. The test can be described thus: ELISA on plates coated with recombinant PSMA, two-fold dilution series, goat anti-human-HRP and TMB.
As usually defined, the EC50 (read off the curve) is the concentration needed to bring the measured effect to its halfway point. Turning to B1, the “EC50 (read off the curve)” value was about 300 pM.
Same read-out and setting: the value for B2 was about 400 pM.
Still for that read-out and setting: the value for B3 was about 400 pM.

Another test addresses T1, recombinant human PSMA …. The experiment in a line: PSMA ELISA on plates coated with recombinant PSMA, two-fold dilution series, goat anti-human-HRP and TMB.
Regarding B3, the “EC50 (read off the curve)” value is about 400 pM.
Same read-out and setting: to B7 belongs about 900 pM.
As to B8, the half-maximal effective concentration (EC50 (read off the curve)) is about 3000 pM.
The same measure, in the same setting: to B9 belongs about 500 pM.
The same measure, in the same setting: to B10 belongs about 400 pM.
On the same count and under the same terms, the value for B11 was about 400 pM.

A further test concerns the target T2, human PSMA displayed on the surface of LNCaP cells (human, UniProt Q04609 1-750).
T2 construct: Endogenous PSMA on living LNCaP cells; also called PSMA-positive LNCaP cells
The experiment in a line: flow cytometry titration on cells (three-fold dilution series, anti-Strep antibody and goat anti-mouse Alexa Fluor 647); the sheet does not name the cell line, the text gives the curves as binding to cell-surface PSMA (LNCaP). The protocol:
FIG. 5—Affinity of Fab variants determined by flow cytometry. LNCaP (PSMA-positive) and DU145 (PSMA-negative) cell lines were probed with three-fold dilution series of tested Fab variants and bound antibodies visualized by the combination of anti-Strep and goat anti-mouse Alexa-Fluor647 antibodies. Cell samples were analyzed using a LSRFortessa flow cytometer and binding curves were fitted using a non-linear regression algorithm.
(§2) Flow cytometry was used to analyze affinity and specificity of 5D3-hFabs for PSMA in its physiological environment, i.e., at the surface of living cells. To this end, LNCaP and DU145 cells were used as representatives of PSMA-positive and PSMA-negative cell lines, respectively, in a protocol described previously (Novakova, Belousova et al. (2020), Int. J. Mol. Sci., 21(18):6672). Briefly, cells were treated by three-fold dilution series of 5D3-hFabs in the concentration range 6000 nM-0.42 pM. Bound 5D3-hFabs were detected by the combination of anti-Strep tag antibody and goat anti-mouse secondary antibody conjugated to Alexa Fluor 647. Cell samples were immediately analyzed using a LSRFortessa flow cytometer.
For orientation: A flow cytometer gives signals particle by particle.
Regarding B4, the “EC50 (read off the curve)” value is about 3000 pM.
Same read-out and setting: the value for B5 was about 3000 pM; that for B6 was about 4000 pM.

In another test the target is T2, human PSMA displayed on the surface of …. The test can be described thus: flow cytometry on LNCaP cells, IgG1 titrated. The protocol:
as §2
Flow cytometry was used to analyze affinity and specificity of humanized 5D3-IgG1s for PSMA in its physiological environment as described above and data are shown in FIG. 11 and Table 2.
B1: the Kd worked out at 640 pM.
The same measure, in the same setting: the value for B2 was 770 pM; that for B3 was 560 pM.

The target in a further test is T1, recombinant human PSMA …. The test can be described thus: ELISA on plates coated with recombinant PSMA, column head 'ELISA (nM)'. The method, then:
(§3) FIG. 16—Affinities of optimized full-length antibodies determined by ELISA. Plates coated with recombinant PSMA were probed with two-fold dilution series of individual antibodies and binding was visualized using goat anti-human secondary antibody conjugated to horseradish peroxidase together with the TMB substrate. Binding curves were fitted using a non-linear regression algorithm.
(§4) Also, the affinity of the optimized humanized 5D3 variants was determined by ELISA (FIG. 16, Table 4).
Regarding B3, the Kd amounted to 250 pM.
Consider B12, for which the Kd worked out at 60 pM.
Same read-out and setting: to B13 belongs 200 pM; to B14, 370 pM; to B15, 360 pM.
On the same count and under the same terms, to B7 belongs 930 pM; to B16, 350 pM.
Same read-out and setting: the value for B8 was 2690 pM; that for B9 was 470 pM; that for B10 was 290 pM.
Consider B11, for which the Kd was 340 pM.
Same read-out and setting: the value for B17 was 500 pM.

The next test deals with T1, recombinant human PSMA …. The experiment in a line: PSMA ELISA on plates coated with recombinant PSMA, two-fold dilution series, goat anti-human-HRP and TMB. This is another data set of the same source. The protocol: as §3, §4
As to B3, the “EC50 (read off the curve)” value is about 500 pM.
Still for that read-out and setting: the value for B12 was about 200 pM.
Still for that read-out and setting: to B13 belongs about 400 pM; to B14, about 400 pM.
On the same count and under the same terms, the value for B15 was about 400 pM.
In the case of B16, the “EC50 (read off the curve)” value was about 400 pM.
For B17, the “EC50 (read off the curve)” value was about 500 pM.

Another test has as its target T2, human PSMA displayed on the surface of …. The experiment in a line: flow cytometry on LNCaP cells, Fab titrated. The method, then: as §2
As for B4, the Kd was 2800 pM.
The same measure, in the same setting: to B5 belongs 3000 pM.
On the same count and under the same terms, the value for B6 was 4100 pM.

For another test, the target named is T1, recombinant human PSMA …. The test can be described thus: ELISA on plates coated with recombinant PSMA (biotin-tagged, captured on streptavidin), two-fold dilution series, goat anti-human-HRP and TMB. The protocol:
FIG. 4—Affinity of Fab variants determined by ELISA. Plates coated with recombinant PSMA were probed with two-fold dilution series of individual fragments and binding visualized using goat anti-human secondary antibody conjugated to horseradish peroxidase together with the TMB substrate. Binding curves were fitted using a non-linear regression algorithm.
as §1
As for B4, the “EC50 (read off the curve)” value was about 4000 pM.
The same measure, in the same setting: the value for B5 was about 2000 pM; that for B6 was about 4000 pM.
